Source: publication PMC9723941

Target: GFPuv (heat-aggregated)
Test: BLI; aggregated GFPuv as the sensor-bound substrate; Ssa1 and Ydj1 in solution; As(III) at the aggregation step (Fig. S3A)

Chain of Ydj1 (P25491 whole entry): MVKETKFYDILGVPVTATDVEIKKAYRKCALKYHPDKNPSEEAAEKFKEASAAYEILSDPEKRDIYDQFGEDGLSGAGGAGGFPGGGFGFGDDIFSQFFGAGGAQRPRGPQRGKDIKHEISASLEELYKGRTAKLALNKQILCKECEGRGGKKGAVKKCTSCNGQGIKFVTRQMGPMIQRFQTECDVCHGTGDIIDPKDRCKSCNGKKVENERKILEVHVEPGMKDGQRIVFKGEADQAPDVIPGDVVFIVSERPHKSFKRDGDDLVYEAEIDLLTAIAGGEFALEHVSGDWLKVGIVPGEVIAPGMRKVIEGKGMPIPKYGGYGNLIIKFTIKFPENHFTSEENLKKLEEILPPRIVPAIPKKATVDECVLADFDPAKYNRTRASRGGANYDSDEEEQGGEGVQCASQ
Chain of Ssa1 (P10591 whole entry): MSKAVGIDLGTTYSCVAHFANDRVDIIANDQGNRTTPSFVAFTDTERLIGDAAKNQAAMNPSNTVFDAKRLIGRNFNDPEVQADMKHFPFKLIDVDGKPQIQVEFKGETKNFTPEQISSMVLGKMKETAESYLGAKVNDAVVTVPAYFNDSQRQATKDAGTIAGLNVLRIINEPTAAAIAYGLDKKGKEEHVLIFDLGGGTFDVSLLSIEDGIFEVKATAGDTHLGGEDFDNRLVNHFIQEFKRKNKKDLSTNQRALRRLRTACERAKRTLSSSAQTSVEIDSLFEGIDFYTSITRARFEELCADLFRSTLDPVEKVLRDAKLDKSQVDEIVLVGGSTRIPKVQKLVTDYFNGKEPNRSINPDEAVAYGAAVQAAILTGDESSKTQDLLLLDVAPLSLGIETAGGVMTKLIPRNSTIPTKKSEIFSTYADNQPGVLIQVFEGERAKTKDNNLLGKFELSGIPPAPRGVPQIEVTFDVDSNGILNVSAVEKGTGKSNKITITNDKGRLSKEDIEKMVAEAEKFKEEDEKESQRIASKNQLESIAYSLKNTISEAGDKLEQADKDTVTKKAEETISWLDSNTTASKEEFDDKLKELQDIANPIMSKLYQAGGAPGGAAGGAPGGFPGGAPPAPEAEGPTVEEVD

reduction of binding to aggregates generated in the presence of 1 mM As(III), against aggregates generated without As(III) [%]	Substance
30	Ssa1 (from UniProt P10591 1-642) (natural protein)
30	Ydj1 (from UniProt P25491 1-409) (natural protein)
